From patent US20160193357A1 come the findings set out here.

Test [1] deals with human Trop-2 on cells (human) (UniProt P09758). The test can be described thus: cell binding on NCI-N87, anti-mouse-HRP, luminescence.
For test [2] the target is unchanged. The test can be described thus: cell-based or functional assay.
Test [3] deals with recombinant human neonatal receptor (FcRn) (human) (UniProt P55899). The test can be described thus: SPR (BIACORE), FcRn on chip. (In general: SPR reads the build-up and loss of mass on a sensor chip optically.)
In test [4] the target is rhTrop-2/TACSTD2 (Sino Biological, Inc.) (human) (UniProt P09758). The test can be described thus: SPR (BIACORE), Trop-2 on chip.
The target in test [5] is human Trop-2 on cells (human) (UniProt P09758). Briefly: cell binding assay; cell line not stated.
Test [6] concerns the target recombinant human neonatal receptor (FcRn) (human) (UniProt P55899). The test can be described thus: SPR (BIACORE), FcRn on low-density chip, three runs at 400 to 25 nM.
The target of test [7] is rhTrop-2/TACSTD2 (Sino Biological, Inc.) (human) (UniProt P09758). The test can be described thus: SPR (BIACORE), recombinant human Trop-2 on low-density CM5 chip, 1:1 model, three runs.
For test [8], the target named is Recombinant human Trop-2 with a His-tag (Sino Biological, Cat#10428-H09H) (human) (UniProt P09758). Briefly: ELISA on His-tagged recombinant human Trop-2 captured on Ni-NTA strips. In general terms: In an ELISA, binding on a coated surface is turned into a signal by an enzyme label.
Sequence of Recombinant human Trop-2 with a His-tag (Sino Biological, Cat#10428-H09H) (human) (P09758 27-274 limits assumed): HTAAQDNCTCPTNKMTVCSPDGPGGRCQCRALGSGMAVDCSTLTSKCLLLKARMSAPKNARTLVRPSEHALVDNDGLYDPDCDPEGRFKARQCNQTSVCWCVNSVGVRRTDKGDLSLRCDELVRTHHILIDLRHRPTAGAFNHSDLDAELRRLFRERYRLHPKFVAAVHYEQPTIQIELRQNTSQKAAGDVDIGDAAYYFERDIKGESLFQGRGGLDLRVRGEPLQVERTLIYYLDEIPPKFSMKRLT

Sequence of rhTrop-2/TACSTD2 (Sino Biological, Inc.) (human) (P09758 27-274 limits assumed): as above
Sequence of human Trop-2 on cells (human) (P09758 27-323): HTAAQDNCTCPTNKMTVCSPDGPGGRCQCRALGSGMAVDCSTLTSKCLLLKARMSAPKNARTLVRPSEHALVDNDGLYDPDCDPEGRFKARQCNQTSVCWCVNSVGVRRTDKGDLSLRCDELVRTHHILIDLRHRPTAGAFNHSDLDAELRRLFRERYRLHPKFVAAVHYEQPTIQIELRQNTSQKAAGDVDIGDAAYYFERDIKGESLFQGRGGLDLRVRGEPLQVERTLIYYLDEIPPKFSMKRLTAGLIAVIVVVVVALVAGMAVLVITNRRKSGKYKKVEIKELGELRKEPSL
Sequence of recombinant human neonatal receptor (FcRn) (human) (P55899 24-297 limits assumed, chain 1 of 2): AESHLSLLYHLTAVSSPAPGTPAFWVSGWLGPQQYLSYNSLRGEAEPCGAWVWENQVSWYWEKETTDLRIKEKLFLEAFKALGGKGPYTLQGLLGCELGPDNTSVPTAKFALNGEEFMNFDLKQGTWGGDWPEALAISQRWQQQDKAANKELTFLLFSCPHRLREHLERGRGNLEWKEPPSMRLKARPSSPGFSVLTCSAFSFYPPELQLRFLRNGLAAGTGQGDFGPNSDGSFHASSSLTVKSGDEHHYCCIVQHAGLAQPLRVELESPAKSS
Sequence of recombinant human neonatal receptor (FcRn) (human) (P61769 21-119 limits assumed, chain 2 of 2, further chain): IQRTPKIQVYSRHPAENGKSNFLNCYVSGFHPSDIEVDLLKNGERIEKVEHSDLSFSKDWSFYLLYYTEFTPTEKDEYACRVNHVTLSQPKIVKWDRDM

For the substance “162-46.2 murine anti-Trop-2 monoclonal antibody”, in test [1], the BMax (relative luminescent units) is 8470, the Kd stood at 0.52 nM and the reduction of maximum binding (Bmax) compared to RS7 came to 25%.

As to “MAB650 murine anti-Trop-2 monoclonal antibody (R&D Systems)”, in test [1], the BMax (relative luminescent units) was found to be 6020, the Kd stood at 0.49 nM and the reduction of maximum binding (Bmax) compared to RS7 came to 50%.

In test [2], “Sacituzumab govitecan (IMMU-132, also known as hRS7-CL2A-SN-38) (antibody)” had an ADCC, specific lysis of MDA-MB-468 by PBMCs (E:T 50:1, 33.3 nM) of 8.6%; a Median fluorescence intensity of phospho-H2AX staining (dsDNA breaks), HCC1806 (Trop-2+), after 30 min at 4° C., wash and overnight culture of 546 MFI; a γH2AX induction in BxPC-3, Mean Fluorescence Intensity of 5350 MFI; a γH2AX induction in BxPC-3, Percent Positive of 69%. Further, the fold lower average binding level than hRS7 in test [3] was found to be 2 fold. In test [4], this substance gave a fold improvement in KD compared to naked hRS7 of 2 fold. For the same substance, the Kd in test [5] was 1.2 nM. Moreover, the Kd in test [6] amounted to 192 nM. The Kd in test [7] came out at 0.26 nM.

As to “hA20 anti-CD20-SN38 conjugate (antibody)”, in test [2], the γH2AX induction in BxPC-3, Mean Fluorescence Intensity came to 2250 MFI and the γH2AX induction in BxPC-3, Percent Positive came to 12.7%.

For the substance “humanized RS7 (hRS7) anti-Trop-2 antibody”, in test [2], the ADCC, specific lysis of BxPC-3 by PBMCs (E:T 100:1, 33.3 nM) stood at 8.5%. In test [2], the ADCC, specific lysis of MDA-MB-468 by PBMCs (E:T 50:1, 33.3 nM) stood at 29.8%. In addition, the figures for the Kd in test [6], in test [8] and in test [7] were 92.4 nM, 0.3 nM and 0.51 nM, respectively.

Broadly, the Kd is the constant that tells how readily two partners part at equilibrium.
